Test results: publication PMC7360973

System: Hsf1 wt (trimer) (human)
Experiment: fluorescence polarization
Details: printed as <= 5 nM; 25 C; Hsf1 SEC buffer: 25 mM HEPES/NaOH pH 7.5, 150 mM NaCl, 10% glycerol, 2 mM DTT; FP at 25 C (5 nM DNA titration; 25 nM DNA and 100 nM trimer for dissociation) …

With 3xHSE DNA (Alexa Fluor 488) the Kd was < 5 nM.
